Experimental findings from PMC9528458 are described below.

This experiment deals with Fzd of the reconstituted xWnt8-Fzd complexes (Fzd4 and FZD5) in nanodiscs.

B1: Xenopus laevis Wnt8 (ligand)
chain: AWSVNNFLMTGPKAYLTYSASVAVGAQNGIEECKYQFAWERWNCPESTLQLATHNGLRSATRETSFVHAISSAGVMYTLTRNCSMGDFDNCGCDDSRNGRIGGRGWVWGGCSDNAEFGERISKLFVDGLETGQDARALMNLHNNEAGRLAVKETMKRTCKCHGISGSCSIQTCWLQLAEFRDIGNHLKIKHDQALKLEMDKRKMRSGNSADNRGAIADAFSSVAGSELIFLEDSPDYCLKNISLGLQGTEGRECLQSGKNLSQWERRSCKRLCTDCGLRVEEKKTEIISSCNCKFHWCCTVKCEQCKQVVIKHFCARRERDSNMLNTKRKNRGHRR
For B1, the occupancy (percent Wnt-bound Fzd after reconstitution) was 30 to 40%.
